# Measurements from patent US20220332804A1 (CSL INNOVATION, published 2022).
# T1: human C2 S278A (human, UniProt P06681 21-752)
# T1 sequence: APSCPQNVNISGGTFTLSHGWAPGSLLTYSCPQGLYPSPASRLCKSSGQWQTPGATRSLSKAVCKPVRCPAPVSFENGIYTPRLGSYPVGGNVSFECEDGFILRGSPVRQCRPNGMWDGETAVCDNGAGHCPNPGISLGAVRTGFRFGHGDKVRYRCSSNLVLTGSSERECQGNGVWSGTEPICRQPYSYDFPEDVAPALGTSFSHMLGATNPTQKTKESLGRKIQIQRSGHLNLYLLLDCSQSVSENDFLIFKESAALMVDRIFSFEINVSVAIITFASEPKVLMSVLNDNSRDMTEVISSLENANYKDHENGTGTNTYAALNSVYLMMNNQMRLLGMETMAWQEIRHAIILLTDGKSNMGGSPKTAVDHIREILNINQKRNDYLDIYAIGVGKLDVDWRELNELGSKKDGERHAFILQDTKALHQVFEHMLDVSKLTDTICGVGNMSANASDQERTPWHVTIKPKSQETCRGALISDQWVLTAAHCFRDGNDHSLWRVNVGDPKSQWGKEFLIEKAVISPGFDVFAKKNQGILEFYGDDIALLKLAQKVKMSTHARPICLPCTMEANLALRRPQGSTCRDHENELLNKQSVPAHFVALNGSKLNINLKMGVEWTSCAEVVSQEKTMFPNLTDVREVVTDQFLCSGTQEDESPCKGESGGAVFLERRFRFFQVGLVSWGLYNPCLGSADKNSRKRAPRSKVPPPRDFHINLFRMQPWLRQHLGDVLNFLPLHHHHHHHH
# T2: human C2 K443A (human, UniProt P06681 21-752)
# T2 sequence: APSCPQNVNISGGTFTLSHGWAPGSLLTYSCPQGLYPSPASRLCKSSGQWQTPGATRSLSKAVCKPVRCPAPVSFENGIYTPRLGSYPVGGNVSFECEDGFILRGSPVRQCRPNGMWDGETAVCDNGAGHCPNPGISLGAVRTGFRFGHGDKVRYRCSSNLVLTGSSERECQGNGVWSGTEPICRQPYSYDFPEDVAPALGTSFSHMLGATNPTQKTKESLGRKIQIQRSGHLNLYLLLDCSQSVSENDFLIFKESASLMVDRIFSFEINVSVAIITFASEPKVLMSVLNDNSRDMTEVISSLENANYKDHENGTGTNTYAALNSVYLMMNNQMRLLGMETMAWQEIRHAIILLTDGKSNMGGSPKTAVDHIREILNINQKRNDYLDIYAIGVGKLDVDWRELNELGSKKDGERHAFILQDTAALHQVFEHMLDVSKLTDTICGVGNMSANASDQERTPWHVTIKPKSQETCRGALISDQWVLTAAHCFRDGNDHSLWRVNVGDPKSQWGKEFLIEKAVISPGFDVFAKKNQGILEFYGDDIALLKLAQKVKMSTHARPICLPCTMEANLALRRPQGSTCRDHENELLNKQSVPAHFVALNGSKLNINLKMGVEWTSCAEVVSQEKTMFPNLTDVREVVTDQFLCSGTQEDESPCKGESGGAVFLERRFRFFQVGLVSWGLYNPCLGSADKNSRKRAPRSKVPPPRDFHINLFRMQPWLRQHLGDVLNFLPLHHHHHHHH
# T3: human C2 L271A (human, UniProt P06681 21-752)
# T3 sequence: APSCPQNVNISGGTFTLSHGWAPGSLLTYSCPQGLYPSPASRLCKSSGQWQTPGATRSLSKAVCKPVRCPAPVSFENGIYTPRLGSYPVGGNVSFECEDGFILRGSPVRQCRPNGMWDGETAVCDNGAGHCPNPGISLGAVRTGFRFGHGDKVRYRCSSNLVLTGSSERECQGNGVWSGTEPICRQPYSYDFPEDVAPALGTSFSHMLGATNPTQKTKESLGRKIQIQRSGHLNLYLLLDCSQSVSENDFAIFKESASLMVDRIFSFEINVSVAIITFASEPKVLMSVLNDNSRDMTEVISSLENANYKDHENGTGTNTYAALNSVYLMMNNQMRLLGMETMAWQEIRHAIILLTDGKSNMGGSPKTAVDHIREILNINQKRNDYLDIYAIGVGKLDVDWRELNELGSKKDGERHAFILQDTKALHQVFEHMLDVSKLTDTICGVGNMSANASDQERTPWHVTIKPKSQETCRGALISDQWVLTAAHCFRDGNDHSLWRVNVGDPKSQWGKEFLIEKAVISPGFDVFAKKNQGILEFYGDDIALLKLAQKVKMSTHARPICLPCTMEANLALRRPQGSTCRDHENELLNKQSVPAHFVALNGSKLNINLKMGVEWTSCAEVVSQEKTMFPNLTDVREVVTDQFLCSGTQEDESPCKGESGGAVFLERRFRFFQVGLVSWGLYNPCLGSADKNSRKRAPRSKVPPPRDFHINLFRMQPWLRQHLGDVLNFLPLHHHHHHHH
# T4: human C2 L620A (human, UniProt P06681 21-752)
# T4 sequence: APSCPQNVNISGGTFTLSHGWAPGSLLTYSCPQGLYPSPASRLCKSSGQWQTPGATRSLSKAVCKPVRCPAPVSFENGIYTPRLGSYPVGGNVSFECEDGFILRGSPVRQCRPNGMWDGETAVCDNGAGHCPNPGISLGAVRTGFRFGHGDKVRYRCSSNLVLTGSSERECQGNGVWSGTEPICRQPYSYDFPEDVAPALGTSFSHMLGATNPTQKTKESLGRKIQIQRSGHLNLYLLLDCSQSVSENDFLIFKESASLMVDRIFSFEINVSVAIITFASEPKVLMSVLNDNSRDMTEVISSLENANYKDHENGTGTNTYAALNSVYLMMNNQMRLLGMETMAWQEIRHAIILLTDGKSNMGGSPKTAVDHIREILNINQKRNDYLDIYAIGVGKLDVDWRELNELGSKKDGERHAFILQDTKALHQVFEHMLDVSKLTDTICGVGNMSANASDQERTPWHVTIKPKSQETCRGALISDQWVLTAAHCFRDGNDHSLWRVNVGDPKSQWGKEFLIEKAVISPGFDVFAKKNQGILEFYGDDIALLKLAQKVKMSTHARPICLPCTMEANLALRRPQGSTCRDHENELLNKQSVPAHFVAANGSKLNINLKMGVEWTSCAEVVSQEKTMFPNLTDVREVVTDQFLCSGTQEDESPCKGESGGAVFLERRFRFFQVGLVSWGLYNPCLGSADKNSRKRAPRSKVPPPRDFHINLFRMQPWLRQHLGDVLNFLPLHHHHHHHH
# Experiments:
# Experiment in all cases: SPR, antibody captured, C2 as analyte;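 further: biacore at 37 °C, anti-C2 mAbs held by immobilised goat anti-human IgG, C2 alanine or serine mutants injected, double-referenced sensorgrams fitted to a 1:1 kinetic or steady-state model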
# [1] = molecular target: T1, human C2 S278A
# [2] = molecular target: T2, human C2 K443A
# [3] = molecular target: T3, human C2 L271A
# [4] = molecular target: T4, human C2 L620A
binder,measurement,setting,value
"RF16-242 (antibody, human IgG4 S228P, lambda, V domains shown, pH-dependent anti-C2 antibody from a phage display library) VH: EVQLLQSGAEVKKPGESLKISCKGSGYSFTSYWIGWVRQMPGKGLEWMGIIYPGDSDTRYSPSFQGQVTISADKSISTAYLQWSSLKASDTAMYYCARRGHYGDYFDYWGQGTLVTVSS VL: SYELTQPPSVSVSPGQTARITCSGDALPKKYAYWYHQKSGQAPVLVIYEDRRRPSEIPERFSGSSSGTMATLTITGAQVEDEGVYFCYSRDRAGNQRVFGGGTQLTVLG",Kd,[1],6.5 nM
same,binding result,[2],no binding
same,Kd,[3],6.9 nM
same,Kd,[4],8 nM
